This data set in a line: soluble on expression in E. coli; label from the status in PepcDB or PDB records.
As to “MAELSDQEMLRYNRQIILRGFDFDGQEALKDSRVLIVGLGGLGCAASQYLASAGVGNLTLLDFDTVSLSNLQRQTLHSDATVGQPKVESARDALTRINPHIAITPVNALLDDAELAALIAEHDLVLDCTDNVAVRNQLNAGCFAAKVPLVSGAAIRMEGQITVFTYQDGEPCYRCLSRLFGENALTCVEAGVMAPLIGVIGSLQAMEAIKMLAGYGKPASGKIVMYDAMTCQFREMKLMRNPGCEVCGQ”, the “soluble on expression in E. coli” value is reported as “soluble”.
In the case of “MGHHHHHHSHMSLSSSACPLLLTLRDHLLQLEQQLCFSLFKIFWQMLVEKLDVYIYQEIILANHFNEGGAAQLQFDMTRNLFPLFSHYCKRPENYFKHIKEACIVLNLNVGSALLLKDVLQSASGQLPATAALNEVGIYKLAQQDVEILLNLRTNWPNTGK” it was “not soluble”; in that of “MGSDKIHHHHHHMDAFEKVRTRLETQPQEEYEVVNAEIKHGGFVYYQEGCCLVRSKDEEADSDNYEVLFNLEELKLDQPFIDCIRVAPDEKYVAAKIRTEDSETSTLVVVKLSDQPVMEASFPNVSSFEWVKDEEDEDVLFYTFQRNLRCHDVYRATFGDNKRNERFYTEKDPSYFVFLYLTKDSRFLTLNIMNKTTSEVWLIDGLSPWDPPVLIQKRIHGMLYYVEHRDDELYILTNVGEPTEFKLMRTAADAPAIMNWDLFFTMKRNTKVVDLDMFKDHCVLFLKHSNLLYVNVIGLADDSVRSLKLPPWACGFIMDTNSDPKNCPFQLCSPIRPPKYYTYKFAEGKLFEETGHEDPITKTSRVLRIEAKSKDGKLVPMTVFHKTDSEDLQRKPLLVHVYGAYGMDLKMNFRPEKRVLVDDGWILAYCHVRGGGELGLQWHADGRLTKKLNGLADLVACIKTLHSQGFSQPSLTTLSAFSAGGVLVGALCNSKPELLRAVTLEAPFLDVLNTMLDTTLPLTLEELEEWGNPSSDEKHKNYIKRYCPCQNIKPQHYPSVHITAYENDERVPLKGIVNYTEKLKEAVAEHTKGAGEGYQPPNIILDIQPGGNHVIEDSHKKITTQMKFLYEELGLDSTDAFEALKKYLKF”, “soluble”; in that of “MGPTQETYTIVRYQSGTFSKQLDEIVTESPITIKLNGEEYVTVVCTPNYIEDMVIGFLISEGIISSYNDVEELWVQKDNGIVHVKSSKVNPLYQTLYNKRYVTSCCGKGRQGFIFVNDAAKAKDLHDIHVKITPEECFYLMNTLQQSSTTFRQTGGVHNTALCDRNKILLSRMDIGRHNALDKIYGHCLRNDISVKGKIIAFSGRISSEILLKVSKIGCEIVLSKSAPTKLALQLAHDLGITVVGFIRNESCNIYTHPHRIDGYQSNN”, “not soluble”.
Take “EVIAAYIEGIKKAAENGLNVSQIHSVASFFVSRLDTEVDKRLEQIGSDEALSLRGKAGVANAQRAYAVFLEAFQAADLPVGAHVQRPLWASTGVKNPDYSPTFYVSELAGPDTVNTMPESTIDAVLAADDIHGDTLSSSSDSANEIFTRISQTGIDFEDVFAVLEQEGVDKFVAAWSDLLDSMESRLK”: the “soluble on expression in E. coli” value was “not soluble”.
In the case of “MAHHHHHHMCVRSMDPTKKGNENFPQRNVAIEEANFDSAFPAFNVHYNVEPKDWRHIELVEKEKQDFLLGIKKEIRLMQEDKNKINYVLNVQKQQLEELQFLLNRMKHFRRKSLIAEGEEQLKVDLLAMPRYLRTGTLFSVDTLGEENALRDFNELHNYSVDKSRLTTRGSFYHNLAEQWVG” it was “not soluble”; in that of “MHCAENCIFCKIIAGDIPSAKVYEDEHVLAFLDISQVTKGHTLVIPKTHIENVYEFTDELAKQYFHAVPKIARAIRDEFEPIGLNTLNNNGEKAGQSVFHYHMHIIPRYGKGDGFGAVWKTHADDYKPEDLQNISSSIAKRLASS”, “soluble”; in that of “MRDYSELEIFEGNPLDKWNDIIFHASKKLSKKELERLLELLALLETFIEKEDLEEKFESFAKALRIDEELQQKIESRKTDIVIQSMANILSGSGSGSGSSGNPLDKWNDIIFHASKKLSKKELERLLELLALLETFIEKEDLEEKFESFAKALRIDEELQQKIESRKTDIVIQSMANILSGLEHHHHHH”, “soluble”.
The value for “DVPLTPSQFAKAKSENFDKKVILSNLNKPHALLWGPDNQIWLTERATGKILRVNPESGSVKTVFQVPEIVNDADGQNGLLGFAFHPDFKNNPYIYISGTFKNPKSTDKELPNQTIIRRYTYNKSTDTLEKPVDLLAGLPSSKDHQSGRLVIGPDQKIYYTIGDQGRNQLAYLFLPNQAQHTPTQQELNGKDYHTYMGKVLRLNLDGSIPKDNPSFNGVVSHIYTLGHRNPQGLAFTPNGKLLQSEQGPNSDDEINLIVKGGNYGWPNVAGYKDDSGYAYANYSAAANKSIKDLAQNGVKVAAGVPVTKESEWTGKNFVPPLKTLYTVQDTYNYNDPTCGEMTYICWPTVAPSSAYVYKGGKKAITGWENTLLVPSLKRGVIFRIKLDPTYSTTYDDAVPMFKSNNRYRDVIASPDGNVLYVLTDTAGNVQKDDGSVTNTLENPGSLIKFTYKAK” was “soluble”; that for “MNQEQNDIAIRVSNLSKCYHIYDTPRDRLKQFILPRLHHLTGQTPRQYFREFWALRDVSFEVKKGETIGIIGRNGSGKSTLLQMICGTLNPTSGSITTYGRIAALLELGSGFNPEFTGRENVYMNASVLGLSQEETDARFDDIAAFADIGEFIEQPVKTYSSGMMVRLGFAVQAQVKPDILIVDEALAVGDAKFQAKCFDRLQQLKDGGTSILLVTHSSEQIVTHCSEAILLDGGDVIEHGEPRYVVNHYMDLLFGKERKSYSASAFSTESNSVEPTQDDNLSLNFIDDVFSSHANYNEHEYRWGDGTATILDFYLLTDNEPYPSVITSGQSVVLGVAVRFYEDLVRPILGITIKTKEGVTVYGVNSETLETDEIKVLGSKGTTALIKAEFICRLAPGDYFISLGLATRKGEEIVPHDRRYDAIYLQIAPVTKFFGLVDLGLKLSAQNTSLLEHHHHHH” was “soluble”.
As to “SDRRTRENPERTFDLVLKVKCHASENEDPEVLWKFPEDFGDQEVLQSVPKFCFPFDVERVSQNQVGQHFTFVLTDMESKQRFGFCRLTSGGRICLCILSYLPWFEVYYKLLNTLADYLAKELEEDLNETLKSLYNHPVPKANTPVNLSVNQELFIASEQVLKDDPSLIPHSCFITPDITGLPTIPESRNLTEYFVAVDVNNMLRLYASMLHERRIIITSSKLSTVSPSHLRL”, the “soluble on expression in E. coli” value is recorded as “soluble”.
Regarding “MSLTTLVNLTPTKEQRKYQEDELIAFLDLQMNTFTANSENNDEAPSLLKKETSFNTDIWIENLFKFGFKKVILTAKLNNGICLWQSNCSKVNINTFSLENNYDDLVKKVSKSCKKFGLKFGIHLTLKDYLTLNLTPEEYDNYYTSQLKELMTNYSQISEVIMDMTSLDEYYDSLDFERYFKVVKEINPKCMISSPIGPDVRWTYYSDIESSKNYFYSSINLDLLKEDFNNEEIRKGNIYGDTWIVGESIYSLSDCLNHNKDSLSNLKHVYNNSLGRNTNLVLVLSPNTDGLLNHNELSLLSDFSKYIKETFSNNLIKGSSILATNSSSSDSYNLIDDYKKSYWIANENAVNPYIEIDFKTITEFNILEIREWIAEGQNVEEFKVYAYNNGWFELYNGTSIGYRHIAKLNNIKTDKIKISFTKYKNPPMINHIGAYLGEGHHHHHH”, the “soluble on expression in E. coli” value is on record as “soluble”.
With “SAATMKKAAAEDVNVTFEDQQKINKFARNTSRITELKEEIEVKKKQLQNLEDACDDIMLADDDCLMIPYQIGDVFISHSQEETQEMLEEAKKNLQEEIDALESRVESIQRVLADLKVQLYAKFGSNINLEADES”, the “soluble on expression in E. coli” value is “soluble”.
In the case of “MATVTELKAVLKDTLEKRGVLGHLKARIRAEVFNALDDDREPRPSLSHENLLINELIREYLEFNKYKYTASVLIAESGQPVVPLDRQFLIRELNAFEESKDNSIPLLYGILAHFLRGPPDGAQNVLLTESTLHPATKHLSWKPSRRPDDDHVRKDTGPRTTTEELPAAAQAVSR” it was “soluble”.
The value for “PQFGLFSKYRTPNCSQYRLPGCPRHFNPVCGSDMSTYANECTLCMKIREGGHNIKIIRNGPC” was “soluble”.
As to “MKKALMICAAGTMIFVSYSAENTAPEVSKAVEDRITKDYDQDGVYSSYEKALRRAQGSIYVTLPEKRGEWYSTLDKIKEEEKELMPDEEARMRRKR”, the “soluble on expression in E. coli” value was “not soluble”.
Regarding “MKKLLIMLIRFYQRYISPLKPPTCRFTPTCSNYFIQALEKHGLLKGTFLGLRRILRCNPLSKGGYDPVPEEFSFKPRRRWS”, the “soluble on expression in E. coli” value was “soluble”.
For the sequence “MSLKKAAIITIGSELLEGLILNKNAQFLCQELKNLGYRVVKVSTVGDDLISISEEVKTLLLKVDLLILTGGLGPTQDDLTRDAVAKVLNRSLKLNEELLSKIKEKIKKYHSEIPQNIERQALVIDGAEVLDNPVGSAPGQLLTVDGKIVILLPGPPRELIPMFNALKDRLRTPDALYQVVLKYYSIPEAVLEDLLKDILYSQNIVEVATMADHVEGVRLRLTTHMKNKEYLDEMVKKILDKTGEHLYGVNDEKMEEVVVRLLKDRKKTLAVAESCTGGMLSSLVVNVPGASEVFIGGVVAYSNDLKKHILGVREDTLKKHGAVSEECVQEMTEGLKKLTGADICVSISGIAGPSGGTPEKPVGTVFIDIFEHEHITMRYNFTGDRNMIRTRSAMMALENLRKYLKGRERVEGGSHHHHHH”, the “soluble on expression in E. coli” value is reported as “soluble”.
In the case of “GMATLGANASLYSEQHRITYYECDRTGRATLTTLIDIAVLASEDQSDALGLTTEMVQSHGVGWVVTQYAIDITRMPRQDEVVTIAVRGSAYNPYFAYREFWIRDADGQQLAYITSIWVMMSQTTRRIVKILPELVAPYQSEVVKRIPRLPRPISFEATDTTITKPYHVRFFDIDPNRHVNNAHYFDWLVDTLPATFLLQHDLVHVDVRYENEVKYGQTVTAHANILPSEVADQVTTSHLIEVDDEKCCEVTIQWRTLPEPIQ” it was “soluble”; in that of “MSLARTRILIVDDEDSIRFGMRDFLESRGYGVVDADSCQRARELFQASPPDVAVIDYRLHDGSAIDLLRDFRQIDADVPMIVLTAYGSIDLAVQAVKEGAEQFLTKPIEMPALHVILKRLLATRRLQRQQQVVATRDRRERVNPLSGGSPAIRDLAEQASKVMHTDSPILILGETGTGKSLLAKWLHHHGMRADEAFVDLNCAGLSPDFLETELFGHEKGAFTGATASKQGMLEIADGGTVFLDEIGDVDPRVQPKLLKVLEEKRFRRLGAVREREVDIRLIAATHHDLASKVKEGTFRSDLYFRISSIPLTMPALRDRKEDIVPLARTLLARSLADPSRTPQLTDDAALALREYAWPGNIREGHHHHHH”, “not soluble”.
“MTKQLPPGQFETEKWPILHEGDVYQFDEATWNFRLFGDVKEEVSLSYQEVMQLPKTVSTIDMHCVTTWSKFDTTFEGIAFREFLRFVELDPDVKYVKIYGYLNGDRFGYSANLPLEALMGDDALFVYRWKDKHHDWQDISPKHGYPLRFIPPATFYLWKGAKWASGIRFMKEDEPGYWEERGYSMTANPFKEERFAEWVPRIRF”: the “soluble on expression in E. coli” value is on record as “not soluble”.
In the case of “GMSTDTCIKRPTRSELVDRFQKKIRAGEPIIGGGAGTGLSAKSEEAGDIDLIVIYNSGRYRMAGRGSLAGLLAYGNANQIVVDMAREVLPVVRHTPVLAGVNGTDPFMVMSTFLRELKEIGFAGVQNFPTVGLIDGLFRQNLEETGMSYAQEVEMIAEAHKLDLLTTPYVFSPEDAVAMAKAGADILVCHMGLTTGGAIGARSGKSMDDCVSLINECIEAARTIRDDIIILSHGGPIANPEDARFILDSCQGCHGFYGASSMERLPAEEAIRSQTLAFKAIRRQPA” it was “soluble”.

Source of the values: the DeepSol protein solubility set.
